{
  "source": "patent US20120288510A1",
  "about": "(UNIVERSITY OF MASSACHUSETTS, published 2012)",
  "key": {"[1]": {"molecular_target": "T1, E2-G bacterially expressed fusion protein with the E2 412-423 sequence of genotype 6g (Hepatitis C virus genotype 6g, not fully specified (N-terminus); also: N-terminal thioredoxin fusion partner)", "T1 construct": "not shown: thioredoxin, N-terminal fusion partner of the pET32 vector; C-terminal myc and 6 histidine tags", "T1 chain": "QLIKTNGSWHIN-{myc tag-His6}", "test": "ELISA on coated bacterial fusion protein; two-fold antibody dilutions; goat anti-human AP, PNPP"}, "[2]": {"molecular_target": "T2, E2-G bacterially expressed fusion protein with the E2 412-423 sequence of genotype 4a (Hepatitis C virus genotype 4a, also: vector linker residues not given here)", "T2 construct": "not shown: thioredoxin, N-terminal fusion partner of the pET32 vector; C-terminal myc and 6 histidine tags", "T2 chain": "thioredoxin-QLINSNGSWHIN-{myc tag-His6 tag}", "test": "ELISA on coated bacterial fusion protein; two-fold antibody dilutions; goat anti-human AP, PNPP"}, "[3]": {"molecular_target": "T3, E2-G bacterially expressed thioredoxin fusion protein (pET32-E2-G, E2 amino acids 412 to 423) (Hepatitis C virus genotype 1a, not fully specified (N-terminus); also: N-terminal thioredoxin fusion partner)", "T3 construct": "also called WT; not shown: thioredoxin, N-terminal fusion partner of the pET32 vector; C-terminal myc and 6 histidine tags", "T3 chain": "QLINTNGSWHIN-{myc tag-His6}", "test": "ELISA on coated bacterial fusion protein; two-fold antibody dilutions; goat anti-human AP, PNPP"}, "[4]": {"molecular_target": "T4, E2-G bacterially expressed fusion protein with the E2 412-423 sequence of genotype 3a (Hepatitis C virus genotype 3a, also: vector linker residues not given here)", "T4 construct": "not shown: thioredoxin, N-terminal fusion partner of the pET32 vector; C-terminal myc and 6 histidine tags", "T4 chain": "thioredoxin-QLVNSSGSWHIN-{myc tag-His6 tag}", "test": "ELISA on coated bacterial fusion protein; two-fold antibody dilutions; goat anti-human AP, PNPP"}, "[5]": {"molecular_target": "T5, E2-G bacterially expressed fusion protein with the E2 412-423 sequence of genotype 2b (Hepatitis C virus genotype 2b, also: vector linker residues not given here)", "T5 construct": "not shown: thioredoxin, N-terminal fusion partner of the pET32 vector; C-terminal myc and 6 histidine tags", "T5 chain": "thioredoxin-HLVNSNGSWHIN-{myc tag-His6 tag}", "test": "ELISA on coated bacterial fusion protein; two-fold antibody dilutions; goat anti-human AP, PNPP"}, "[6]": {"molecular_target": "T6, E2-G bacterially expressed fusion protein with the E2 412-423 sequence of genotype 5a (Hepatitis C virus genotype 5a, not fully specified (N-terminus); also: N-terminal thioredoxin fusion partner)", "T6 construct": "not shown: thioredoxin, N-terminal fusion partner of the pET32 vector; C-terminal myc and 6 histidine tags", "T6 chain": "QFVNTNGSWHIN-{myc tag-His6}", "test": "ELISA on coated bacterial fusion protein; two-fold antibody dilutions; goat anti-human AP, PNPP"}, "[7]": {"molecular_target": "T7, E2-G bacterially expressed fusion protein with the E2 412-423 sequence of genotype 6k (Hepatitis C virus genotype 6k, not fully specified (N-terminus); also: N-terminal thioredoxin fusion partner)", "T7 construct": "not shown: thioredoxin, N-terminal fusion partner of the pET32 vector; C-terminal myc and 6 histidine tags", "T7 chain": "QLINSNGSWHVN-{myc tag-His6}", "test": "ELISA on coated bacterial fusion protein; two-fold antibody dilutions; goat anti-human AP, PNPP"}, "[8]": {"molecular_target": "T8, soluble HCV genotype 1b E2-661 (pCDNA-1b-E2-661) (Hepatitis C virus genotype 1b)", "T8 construct": "range 364-661", "test": "ELISA on plate coated with 2 µg/ml antigen; two-fold antibody dilutions; goat anti-human AP, PNPP"}, "[9]": {"molecular_target": "E2-G bacterially expressed fusion protein with the E2 412-423 sequence of a genotype 5 strain (genba (Hepatitis C virus genotype 5))", "test": "ELISA, fusion protein coated on plate"}, "[10]": {"molecular_target": "T9, T416A", "T9 construct": "alanine scanning mutant of E2-G; also called pET32-E2-G-T416A; not shown: N-terminal thioredoxin partner and vector-encoded stretch of pET32", "test": "ELISA on coated bacterial fusion protein; two-fold antibody dilutions; goat anti-human AP, PNPP"}, "[11]": {"molecular_target": "T10, N415A (not fully specified)", "T10 construct": "alanine scanning mutant of E2-G; also called pET32-E2-G-N415A; not shown: N-terminal thioredoxin partner and vector-encoded stretch of pET32", "T10 chain": "QLIATNGSWHINHHHHHH", "test": "ELISA on coated bacterial fusion protein; two-fold antibody dilutions; goat anti-human AP, PNPP"}, "[12]": {"molecular_target": "T11, H421A", "T11 construct": "alanine scanning mutant of E2-G; also called pET32-E2-G-H421A", "test": "ELISA on coated bacterial fusion protein; two-fold antibody dilutions; goat anti-human AP, PNPP"}, "[13]": {"molecular_target": "T12, S419A", "T12 construct": "alanine scanning mutant of E2-G; also called pET32-E2-G-S419A", "test": "ELISA on coated bacterial fusion protein; two-fold antibody dilutions; goat anti-human AP, PNPP"}, "[14]": {"molecular_target": "T3, E2-G bacterially expressed thioredoxin …", "test": "ELISA on coated bacterial fusion protein; two-fold antibody dilutions; goat anti-human AP, PNPP"}, "[15]": {"molecular_target": "T13, N417A", "T13 construct": "alanine scanning mutant of E2-G; also called pET32-E2-G-N417A", "test": "ELISA on coated bacterial fusion protein; two-fold antibody dilutions; goat anti-human AP, PNPP"}, "[16]": {"molecular_target": "T14, G418A", "T14 construct": "alanine scanning mutant of E2-G; also called pET32-E2-G-G418A", "test": "ELISA on coated bacterial fusion protein; two-fold antibody dilutions; goat anti-human AP, PNPP"}, "[17]": {"molecular_target": "T15, I414A (not fully specified)", "T15 construct": "alanine scanning mutant of E2-G; also called pET32-E2-G-I414A (printed in the text as pET32-E2-G-1414A); not shown: N-terminal thioredoxin partner and vector-encoded stretch of pET32", "T15 chain": "QLANTNGSWHINHHHHHH", "test": "ELISA on coated bacterial fusion protein; two-fold antibody dilutions; goat anti-human AP, PNPP"}, "[18]": {"molecular_target": "T16, Q412A (not fully specified)", "T16 construct": "alanine scanning mutant of E2-G; also called pET32-E2-G-Q412A; not shown: N-terminal thioredoxin partner and vector-encoded stretch of pET32", "T16 chain": "ALINTNGSWHINHHHHHH", "test": "ELISA on coated bacterial fusion protein; two-fold antibody dilutions; goat anti-human AP, PNPP"}, "[19]": {"molecular_target": "L413A", "test": "ELISA on coated bacterial fusion protein; two-fold antibody dilutions; goat anti-human AP, PNPP"}, "[20]": {"molecular_target": "T17, N423A", "T17 construct": "alanine scanning mutant of E2-G; also called pET32-E2-G-N423A", "test": "ELISA on coated bacterial fusion protein; two-fold antibody dilutions; goat anti-human AP, PNPP"}, "[21]": {"molecular_target": "T18, I422A", "T18 construct": "alanine scanning mutant of E2-G; also called pET32-E2-G-I422A (printed in the text as pET32-E2-G-1422A)", "test": "ELISA on coated bacterial fusion protein; two-fold antibody dilutions; goat anti-human AP, PNPP"}, "[22]": {"molecular_target": "T3, E2-G bacterially expressed thioredoxin …", "test": "ELISA on coated bacterial fusion protein; two-fold antibody dilutions; goat anti-human AP, PNPP"}, "[23]": {"molecular_target": "E2-D", "sequence (P27958 436-463, tags left off)": "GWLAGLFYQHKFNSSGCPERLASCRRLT", "test": "ELISA on coated bacterial fusion protein; two-fold antibody dilutions; goat anti-human AP, PNPP"}, "[24]": {"molecular_target": "T3, E2-G bacterially expressed thioredoxin …", "test": "Biacore SPR; antibody captured on goat anti-human IgG Fc, E2-G flowed over at varying concentrations; BIAevaluation fit"}},
  "note": "Where two headings read alike, the source gives them in different places. No end group written: not given here.",
  "data": [
    {"binder": "human antibody 95-2 (antibody, V domains shown, also called clone 95-2) VH: QVQLVESGGGVVQPGRSLRLSCAASGFTFSSYGMHWVRQAPGKGLEWVAVIWFDGNNQYYADSVKGRFTISRDNSKNTLYLQMNSLRAEDTAVYYCARDIFTVVRGFFIYFDYWGQGTLVTVSS VL: EIVLTQSPATLSLSPGERATLSCRASQSVGSYLAWYQQKPGQAPRLLIYDASNRATGIPARFSGSGSGTDFTLTISSLEPEDFAVYYCQQRSNWVTFGQGTRLEIK", "values": [
      {"measurement": "EC50 (read off the curve)", "setting": "[1]", "result": "~0.02", "unit": "µg/mL"},
      {"measurement": "EC50 (read off the curve)", "setting": "[2]", "result": "~0.02", "unit": "µg/mL"},
      {"measurement": "EC50 (read off the curve)", "setting": "[3]", "result": "~0.02", "unit": "µg/mL"},
      {"measurement": "EC50 (read off the curve)", "setting": "[4]", "result": "~0.02", "unit": "µg/mL"},
      {"measurement": "EC50 (read off the curve)", "setting": "[5]", "result": "~0.02", "unit": "µg/mL"},
      {"measurement": "EC50 (read off the curve)", "setting": "[6]", "result": "~0.02", "unit": "µg/mL"},
      {"measurement": "EC50 (read off the curve)", "setting": "[7]", "result": "~0.02", "unit": "µg/mL"},
      {"measurement": "EC50 (read off the curve)", "setting": "[8]", "result": "~0.1", "unit": "µg/mL"},
      {"measurement": "fold reduction of recognition (reference not named)", "setting": "[9]", "result": 10, "unit": "fold"},
      {"measurement": "EC50 (read off the curve)", "setting": "[10]", "result": "~0.02", "unit": "µg/mL"},
      {"measurement": "EC50 (read off the curve)", "setting": "[11]", "result": "~0.02", "unit": "µg/mL"},
      {"measurement": "EC50 (read off the curve)", "setting": "[12]", "result": "~0.02", "unit": "µg/mL"},
      {"measurement": "EC50 (read off the curve)", "setting": "[13]", "result": "~0.02", "unit": "µg/mL"},
      {"measurement": "EC50 (read off the curve)", "setting": "[14]", "result": "~0.02", "unit": "µg/mL"},
      {"measurement": "EC50 (read off the curve)", "setting": "[15]", "result": "~0.02", "unit": "µg/mL"},
      {"measurement": "EC50 (read off the curve)", "setting": "[16]", "result": "~0.03", "unit": "µg/mL"},
      {"measurement": "EC50 (read off the curve)", "setting": "[17]", "result": "~0.02", "unit": "µg/mL"},
      {"measurement": "EC50 (read off the curve)", "setting": "[18]", "result": "~0.02", "unit": "µg/mL"},
      {"measurement": "binding result", "setting": "[19]", "result": "binds"},
      {"measurement": "EC50 (read off the curve)", "setting": "[20]", "result": "~0.02", "unit": "µg/mL"},
      {"measurement": "EC50 (read off the curve)", "setting": "[21]", "result": "~0.02", "unit": "µg/mL"},
      {"measurement": "EC50 (read off the curve)", "setting": "[22]", "result": "~0.04", "unit": "µg/mL"},
      {"measurement": "binding result", "setting": "[23]", "result": "no binding (tested: 1 µg/ml)"},
      {"measurement": "Kd", "setting": "[24]", "result": 1.9, "unit": "nM"},
      {"measurement": "koff", "setting": "[24]", "result": 0.0003, "unit": "s⁻¹"},
      {"measurement": "kon", "setting": "[24]", "result": 160000, "unit": "M⁻¹ s⁻¹"}
    ]}
  ]
}
